# Reference: IntAct's records for PubMed 26751641
# B1: Chromodomain-helicase-DNA-binding protein 1 (Homo sapiens), O14646 (parent)
# chain: MNGHSDEESVRNSSGESSQSDDDSGSASGSGSGSSSGSSSDGSSSQSGSSDSDSGSESGSQSESESDTSRENKVQAKPPKVDGAEFWKSSPSILAVQRSAILKKQQQQQQQQQHQASSNSGSEEDSSSSEDSDDSSSEVKRKKHKDEDWQMSGSGSPSQSGSDSESEEEREKSSCDETESDYEPKNKVKSRKPQNRSKSKNGKKILGQKKRQIDSSEEDDDEEDYDNDKRSSRRQATVNVSYKEDEEMKTDSDDLLEVCGEDVPQPEEEEFETIERFMDCRIGRKGATGATTTIYAVEADGDPNAGFEKNKEPGEIQYLIKWKGWSHIHNTWETEETLKQQNVRGMKKLDNYKKKDQETKRWLKNASPEDVEYYNCQQELTDDLHKQYQIVERIIAHSNQKSAAGYPDYYCKWQGLPYSECSWEDGALISKKFQACIDEYFSRNQSKTTPFKDCKVLKQRPRFVALKKQPSYIGGHEGLELRDYQLNGLNWLAHSWCKGNSCILADEMGLGKTIQTISFLNYLFHEHQLYGPFLLVVPLSTLTSWQREIQTWASQMNAVVYLGDINSRNMIRTHEWTHHQTKRLKFNILLTTYEILLKDKAFLGGLNWAFIGVDEAHRLKNDDSLLYKTLIDFKSNHRLLITGTPLQNSLKELWSLLHFIMPEKFSSWEDFEEEHGKGREYGYASLHKELEPFLLRRVKKDVEKSLPAKVEQILRMEMSALQKQYYKWILTRNYKALSKGSKGSTSGFLNIMMELKKCCNHCYLIKPPDNNEFYNKQEALQHLIRSSGKLILLDKLLIRLRERGNRVLIFSQMVRMLDILAEYLKYRQFPFQRLDGSIKGELRKQALDHFNAEGSEDFCFLLSTRAGGLGINLASADTVVIFDSDWNPQNDLQAQARAHRIGQKKQVNIYRLVTKGSVEEDILERAKKKMVLDHLVIQRMDTTGKTVLHTGSAPSSSTPFNKEELSAILKFGAEELFKEPEGEEQEPQEMDIDEILKRAETHENEPGPLTVGDELLSQFKVANFSNMDEDDIELEPERNSKNWEEIIPEDQRRRLEEEERQKELEEIYMLPRMRNCAKQISFNGSEGRRSRSRRYSGSDSDSISEGKRPKKRGRPRTIPRENIKGFSDAEIRRFIKSYKKFGGPLERLDAIARDAELVDKSETDLRRLGELVHNGCIKALKDSSSGTERTGGRLGKVKGPTFRISGVQVNAKLVISHEEELIPLHKSIPSDPEERKQYTIPCHTKAAHFDIDWGKEDDSNLLIGIYEYGYGSWEMIKMDPDLSLTHKILPDDPDKKPQAKQLQTRADYLIKLLSRDLAKKEALSGAGSSKRRKARAKKNKAMKSIKVKEEIKSDSSPLPSEKSDEDDDKLSESKSDGRERSKKSSVSDAPVHITASGEPVPISEESEELDQKTFSICKERMRPVKAALKQLDRPEKGLSEREQLEHTRQCLIKIGDHITECLKEYTNPEQIKQWRKNLWIFVSKFTEFDARKLHKLYKHAIKKRQESQQNSDQNSNLNPHVIRNPDVERLKENTNHDDSSRDSYSSDRHLTQYHDHHKDRHQGDSYKKSDSRKRPYSSFSNGKDHRDWDHYKQDSRYYSDREKHRKLDDHRSRDHRSNLEGSLKDRSHSDHRSHSDHRLHSDHRSSSEYTHHKSSRDYRYHSDWQMDHRASSSGPRSPLDQRSPYGSRSPFEHSVEHKSTPEHTWSSRKT
# Variants of: B1
# Details: with KDM1A
row,effect of a mutation on the interaction,Variant
1,disrupting interaction strength,D425A
